Source: patent US10864252B2, “Anti-SSX-2 T cell receptors and related materials and methods of use” (The United States of America, as represented by the …, priority 2010, dated 2020)

Key:
[1] = test system: mel1300 cells; experiment: IFN-γ release, SSX-2 TCR PBL co-cultured with mel1300 cells with DAC; assay type: cell-based; settings: 0.1 μM or 1.0 μWI DAC; PBLs from three donors; FIG. 12
Description: SSX-2 TCR-transduced PBLs from three donors were co-cultured with mel1300 cells without DAC or with 0.1 μM or 1.0 μWI DAC.

[2] = test system: COS-A2 SSX2; experiment: IFN-γ release, co-culture with COS-A2 SSX2; assay type: cell-based; settings: co-cultured with COS-A2-SSX2
Excerpt: (§1) SSX-2 TCR-transduced PBLs were co-cultured with various tumor cell lines. […] FIGS. 4A and 4B, FIG. 11, and Tables 3 and 4 show additional results of PBLs from human donors that were transduced with the SSX-2 TCR of Example 2 when these PBLs were co-cultured with various tumor cells. PBLs that were untransduced (UT) or transduced with a vector comprising SEQ ID NO: 27 (SSX-2 TCR), SEQ ID NO: 29 (codon-optimized SSX-2 TCR), or SEQ ID NO: 30 (codon-optimized SSX-2 TCR including mouse constant region) were co-cultured with various tumor cell lines. Tables 5 and 6 show the resulting interferon-γ levels (pg/ml) measured with respect to PBL from two different donors.

[3] = test system: K562-A2-Erythroleukemia; experiment: IFN-γ release, co-culture with K562-A2 erythroleukemia; assay type: cell-based; settings: co-cultured with K562-A2-Erythroleukemia
Excerpt: (§2) PBLs that were untransduced (UT) or transduced with a vector comprising SEQ ID NO: 27 (SSX-2 TCR), SEQ ID NO: 29 (codon-optimized SSX-2 TCR), or SEQ ID NO: 30 (codon-optimized SSX-2 TCR including mouse constant region) were co-cultured with various tumor cell lines. Tables 5 and 6 show the resulting interferon-γ levels (pg/ml) measured with respect to PBL from two different donors.

[4] = test system: T331A mel; experiment: IFN-γ release, co-culture with T331A; assay type: cell-based; settings: co-cultured with T331A mel
Excerpt: as §1

[5] = test system: 938 mel; experiment: IFN-γ release, co-culture with 938; assay type: cell-based; settings: co-cultured with 938 mel
Excerpt: as §1

[6] = test system: 938-A2 mel; experiment: IFN-γ release, co-culture with 938-A2 melanoma; assay type: cell-based; settings: co-cultured with 938-A2 mel
Excerpt: as §1

[7] = test system: 624 mel; experiment: IFN-γ release, co-culture with 624 melanoma; assay type: cell-based; settings: co-cultured with 624 mel
Excerpt: as §1

[8] = test system: 293-A2; experiment: IFN-γ release, co-culture with 293-A2; assay type: cell-based; settings: co-cultured with 293-A2
Excerpt: as §1

[9] = test system: SSX-2+/HLA-A2+ target cells; experiment: Percent lysis of target cells; assay type: cell-based; settings: FIGS. 7A-D and 8A-D, various E:T ratios
[10] = test system: COS-A2; experiment: IFN-γ release, TCR-transduced PBL co-cultured with COS-A2; assay type: cell-based; settings: co-cultured with Cos-A2
Excerpt: as §1

[11] = test system: SKOV3 Ovarian; experiment: IFN-γ release, co-culture with SKOV3 ovarian; assay type: cell-based; settings: co-cultured with SKOV3 Ovarian
Excerpt: as §1

[12] = test system: U251 Glioma; experiment: IFN-γ release, co-culture with U251 glioma; assay type: cell-based; settings: co-cultured with U251 Glioma
Excerpt: as §1

[13] = test system: 293-A2 SSX2; experiment: IFN-γ release, co-culture with 293-A2 SSX2; assay type: cell-based; settings: co-cultured with 293-A2-SSX2
Excerpt: as §1

[14] = test system: COS-A2-SSX2 cells; experiment: CD137 (4-1BB) upregulation after co-culture with COS-A2-SSX2 cells; assay type: cell-based; settings: FACS after co-culture with COS-A2-SSX2 cells
[15] = test system: K562; experiment: IFN-γ release, co-culture with K562; assay type: cell-based; settings: co-cultured with K562
Excerpt: as §2

[16] = test system: COS-A2-SSX-2 cells; experiment: Proliferation ([3H]-thymidine) on co-culture with COS-A2-SSX-2 cells; assay type: cell-based; settings: PBL from Donor 1 or Donor 2; FIGS. 6A, 6B
Description: PBLs from Donor 1 or Donor 2 that were untransduced (UT) or transduced with a vector comprising SEQ ID NO: 27 (SSX-2 TCR), SEQ ID NO: 29 (codon-optimized SSX-2 TCR), or SEQ ID NO: 30 (codon-optimized SSX-2 TCR including mouse constant region) were co-cultured with COS-A2-SSX-2 cells. Proliferation in terms of [^3H]-thymidine incorporation (CPM) was measured and is shown in FIG. 6A (Donor 1) and 6B (Donor 2).

[17] = test system: 1300 mel; experiment: IFN-γ release, co-culture with 1300 mel; assay type: cell-based; settings: co-cultured with 1300 mel
Excerpt: as §2

[18] = test system: SK MEL37; experiment: IFN-γ release, co-culture with SK MEL37 melanoma; assay type: cell-based
Excerpt: as §1

[19] = IFN-γ release, transduced PBL without target cells (medium / T cell alone); assay type: cell-based, human; settings: T cell alone
Excerpt: as §1

[20] = test system: SSX2+/HLA-A2+ target cells; experiment: Proliferation ([3H]-thymidine) on co-culture with tumor cells; assay type: cell-based; settings: 1300 mel, 624 mel, 888 mel, SK mel 37 or COS-A2-SSX-2 cells; FIGS. 9A-9E
Excerpt: In another experiment, PBLs transduced as described in this example were co-cultured with 1300 mel cells, 624 mel cells, 888 mel cells, SK mel 37 cells, or COS-A2-SSX-2 cells.

[21] = test system: Lau 149 mel; experiment: IFN-γ release, co-culture with Lau 149 mel; assay type: cell-based; settings: co-cultured with Lau 149 mel
Excerpt: as §2

[22] = Table 5 donor, co-cultured with Skmel 37 mel
[23] = Table 6 donor, co-cultured with Skmel 37

Molecule | interferon-γ levels ([2]; Table 5 donor) [pg/mL] | interferon-γ levels ([2]; Table 6 donor) [pg/mL] | interferon-γ levels ([3]; Table 5 donor) [pg/mL] | interferon-γ levels ([3]; Table 6 donor) [pg/mL] | interferon-γ levels ([4]; Table 5 donor) [pg/mL] | interferon-γ levels ([4]; Table 6 donor) [pg/mL] | interferon-γ levels ([5]; Table 5 donor) [pg/mL] | interferon-γ levels ([5]; Table 6 donor) [pg/mL] | interferon-γ levels ([6]; Table 5 donor) [pg/mL] | interferon-γ levels ([6]; Table 6 donor) [pg/mL] | interferon-γ levels ([7]; Table 5 donor) [pg/mL] | interferon-γ levels ([7]; Table 6 donor) [pg/mL] | interferon-γ levels ([8]; Table 5 donor) [pg/mL] | interferon-γ levels ([8]; Table 6 donor) [pg/mL] | lytic activity (percent lysis) [9] | interferon-γ levels ([10]; Table 5 donor) [pg/mL] | interferon-γ levels ([10]; Table 6 donor) [pg/mL] | interferon-γ levels ([11]; Table 5 donor) [pg/mL] | interferon-γ levels ([11]; Table 6 donor) [pg/mL] | interferon-γ levels ([12]; Table 5 donor) [pg/mL] | also measured
Nc1ncn([C@H]2C[C@H](O)[C@@H](CO)O2)c(=O)n1 [DAC, 5-aza-2′-deoxycytidine] |  |  |  |  |  |  |  |  |  |  |  |  |  |  |  |  |  |  |  |  | effect on recognition of mel1300 cells (IFN-γ) [1]: enhances the recognition of mel1300 cells by SSX2-TCR engineered PBL
SSX2-TCR-Co Op: codon-optimized anti-SSX-2 TCR alpha and beta chains encoded by SEQ ID NO: 29, tested as transduced human PBLs (protein) MALSSLLKVVTASLWLGPGIAQKITQTQPGMFVQEKEAVTLDCTYDTSDPSYGLFWYKQPSSGEMIFLIYQGSYDQQNATEGRYSLNFQKARKSANLVISASQLGDSAMYFCAMTSGFGNEKLTFGTGTRLTIIPNIQNPDPAVYQLRDSKSSDKSVCLFTDFDSQTNVSQSKDSDVYITDKTVLDMRSMDFKSNSAVAWSNKSDFACANAFNNSIIPEDTFFPSPESSCDVKLVEKSFETDTNLNFQNLSVIGFRILLLKVAGFNLLMTLRLWSSRAKRSGSGATNFSLLKQAGDVEENPGPMGPGLLHWMALCLLGTGHGDAMVIQNPRYQVTQFGKPVTLSCSQTLNHNVMYWYQQKSSQAPKLLFHYYDKDFNNEADTPDNFQSRRPNTSFCFLDIRSPGLGDAAMYLCATSRGQGGQPQHFGDGTRLSILEDLNKVFPPEVAVFEPSEAEISHTQKATLVCLATGFFPDHVELSWWVNGKEVHSGVSTDPQPLKEQPALNDSRYCLSSRLRVSATFWQNPRNHFRCQVQFYGLSENDEWTQDRAKPVTQIVSAEAWGRADCGFTSVSYQQGVLSATILYEILLGKATLYAVLVSALVLMAMVKRKDF | 64142 | 138324 | 21325 | 13610 | 30 | 30 | 890 | 768 | 46304 | 51173 | 37547 | 47059 | 711 | 1067 | specific lytic activity against SSX-2^+/HLA-A2^+ target cells | 2338 | 601 | 2527 | 22509 | 19223 | interferon-γ levels ([12]; Table 6 donor): 21418 pg/mL; interferon-γ levels ([13]; Table 5 donor): 37522 pg/mL; interferon-γ levels ([13]; Table 6 donor): 49112 pg/mL; activation marker CD137 (4-1BB) [14]: upregulated; interferon-γ levels ([15]; Table 5 donor): 1714 pg/mL; interferon-γ levels ([15]; Table 6 donor): 2784 pg/mL; proliferation ([3H]-thymidine incorporation) [16]: proliferate in response to co-culture with COS-A2-SSX-2 cells; interferon-γ levels ([17]; Table 5 donor): 2596 pg/mL; interferon-γ levels ([17]; Table 6 donor): 3052 pg/mL; interferon-γ levels [18, 22]: 8869 pg/mL; interferon-γ levels [18, 23]: 11445 pg/mL; interferon-γ levels ([19]; Table 5 donor): 164 pg/mL; interferon-γ levels ([19]; Table 6 donor): 290 pg/mL; proliferation ([3H]-thymidine incorporation) [20]: proliferate in response to co-culture with SSX2+/HLA-A2+ target cells; interferon-γ levels ([21]; Table 5 donor): 193 pg/mL; interferon-γ levels ([21]; Table 6 donor): 120 pg/mL
SSX2-TCR-MCR: codon-optimized human/mouse chimeric anti-SSX-2 TCR with mouse constant region, encoded by SEQ ID NO: 30, tested as transduced human PBLs (protein) MALSSLLKVVTASLWLGPGIAQKITQTQPGMFVQEKEAVTLDCTYDTSDPSYGLFWYKQPSSGEMIFLIYQGSYDQQNATEGRYSLNFQKARKSANLVISASQLGDSAMYFCAMTSGFGNEKLTFGTGTRLTIIPNDIQNPEPAVYQLKDPRSQDSTLCLFTDFDSQINVPKTMESGTFITDKTVLDMKAMDSKSNGAIAWSNQTSFTCQDIFKETNATYPSSDVPCDATLTEKSFETDMNLNFQNLSVMGLRILLLKVAGFNLLMTLRLWSSRAKRSGSGATNFSLLKQAGDVEENPGPMGPGLLHWMALCLLGTGHGDAMVIQNPRYQVTQFGKPVTLSCSQTLNHNVMYWYQQKSSQAPKLLFHYYDKDFNNEADTPDNFQSRRPNTSFCFLDIRSPGLGDAAMYLCATSRGQGGQPQHFGDGTRLSILEDLRNVTPPKVSLFEPSKAEIANKQKATLVCLARGFFPDHVELSWWVNGKEVHSGVSTDPQAYKESNYSYCLSSRLRVSATFWHNPRNHFRCQVQFHGLSEEDKWPEGSPKPVTQNISAEAWGRACGITSSYQQGVLSATILYEILLGKATLYAVLVSTLVVMAMVKRKNS | 56893 | 164314 | 17437 | 13555 | 30 | 38 | 1122 | 932 | 51092 | 40047 | 46999 | 57693 | 802 | 1005 | specific lytic activity against SSX-2^+/HLA-A2^+ target cells | 2827 | 553 | 2221 | 9857 | 19027 | interferon-γ levels ([12]; Table 6 donor): 20027 pg/mL; interferon-γ levels ([13]; Table 5 donor): 37258 pg/mL; interferon-γ levels ([13]; Table 6 donor): 47273 pg/mL; activation marker CD137 (4-1BB) [14]: upregulated; interferon-γ levels ([15]; Table 5 donor): 2752 pg/mL; interferon-γ levels ([15]; Table 6 donor): 3328 pg/mL; proliferation ([3H]-thymidine incorporation) [16]: proliferate in response to co-culture with COS-A2-SSX-2 cells; interferon-γ levels ([17]; Table 5 donor): 2715 pg/mL; interferon-γ levels ([17]; Table 6 donor): 3460 pg/mL; interferon-γ levels [18, 22]: 10401 pg/mL; interferon-γ levels [18, 23]: 10630 pg/mL; interferon-γ levels ([19]; Table 5 donor): 327 pg/mL; interferon-γ levels ([19]; Table 6 donor): 554 pg/mL; proliferation ([3H]-thymidine incorporation) [20]: proliferate in response to co-culture with SSX2+/HLA-A2+ target cells; interferon-γ levels ([21]; Table 5 donor): 270 pg/mL; interferon-γ levels ([21]; Table 6 donor): 142 pg/mL
